{
  "source": "patent US20240417437A1",
  "about": "“Linker Polypeptides” (Trutino Biosciences Inc., priority 2021, published 2024)",
  "molecules": {"B1": {"name": "Construct EE: mIL2-SGG-GGWSHW-MMPcs1-2x(G4S)-mIL2Ra(1-215)-muIgG1Fc; pH fibronectin (protein)", "chain": "APTSSSTSSSTAEAQQQQQQQQQQQQHLEQLLMDLQELLSRMENYRNLKLPRMLTFKFYLPKQATELKDLQCLEDELGPLRHVLDLTQSKSFQLEDAENFISNIRVTVVKLKGSDNTFECQFDDESATVVDFLRRWIAFCQSIISTSPQSGGGGWSHWGPLGVRGGGGGSGGGGSELCLYDPPEVPNATFKALSYKNGTILNCECKRGFRRLKELVYMRCLGNSWSSNCQCTSNSHDKSRKQVTAQLEHQKEQQTTTDMQKPTQSMHQENLTGHCREPPPWKHEDSKRIYHFVEGQSVHYECIPGYKALQRGPAISICKMKCGKTGWTQPQLTCVDEREHHRFLASEESQGSRNSSPESETSCPITTTDFPQPTETTAMTETFVLTMEYKGCKPCICTVPEVSSVFIFPPKPKDVLTITLTPKVTCVVVDISKDDPEVQFSWFVDDVEVHTAQTQPREEQFNSTFRSVSELPIMHQDWLNGKEFKCRVNSAAFPAPIEKTISKTKGRPKAPQVYTIPPPKEQMAKDKVSLTCMITDFFPEDITVEWQWNGQPAENYKNTQPIMDTDGSYFVYSKLNVQKSNWEAGNTFTCSVLHEGLHNHHTEKSLSHSPGK", "modifications": "Synthetic: Construct EE", "notes": "mIL2-SGG-GGWSHW-MMPcs1-2x(G4S)-mIL2Ra(1-215)-muIgG1Fc; pH fibronectin"}, "B2": {"name": "Construct Y: mIL2(C140S)-VRIQRKKEKMKET-MMPcs1-2x(G4S)-mIL2Ra(1-215)-muIgG1Fc; heparin (protein)", "chain": "APTSSSTSSSTAEAQQQQQQQQQQQQHLEQLLMDLQELLSRMENYRNLKLPRMLTFKFYLPKQATELKDLQCLEDELGPLRHVLDLTQSKSFQLEDAENFISNIRVTVVKLKGSDNTFECQFDDESATVVDFLRRWIAFSQSIISTSPQVRIQRKKEKMKETGPLGVRGGGGGSGGGGSELCLYDPPEVPNATFKALSYKNGTILNCECKRGFRRLKELVYMRCLGNSWSSNCQCTSNSHDKSRKQVTAQLEHQKEQQTTTDMQKPTQSMHQENLTGHCREPPPWKHEDSKRIYHFVEGQSVHYECIPGYKALQRGPAISICKMKCGKTGWTQPQLTCVDEREHHRFLASEESQGSRNSSPESETSCPITTTDFPQPTETTAMTETFVLTMEYKIEGRMDGCKPCICTVPEVSSVFIFPPKPKDVLTITLTPKVTCVVVDISKDDPEVQFSWFVDDVEVHTAQTQPREEQFNSTFRSVSELPIMHQDWLNGKEFKCRVNSAAFPAPIEKTISKTKGRPKAPQVYTIPPPKEQMAKDKVSLTCMITDFFPEDITVEWQWNGQPAENYKNTQPIMDTDGSYFVYSKLNVQKSNWEAGNTFTCSVLHEGLHNHHTEKSLSHSPGK", "modifications": "Synthetic: Construct Y", "notes": "mIL2(C140S)-…-MMPcs1-2x(G4S)-mIL2Ra(1-215)-muIgG1Fc; heparin"}, "B3": {"name": "Construct NN: mIL2-2x(SG4)-MMPcs1-2x(GHHPH)-mIL2Ra(1-215)-muIgG1Fc; pH heparin (protein)", "chain": "APTSSSTSSSTAEAQQQQQQQQQQQQHLEQLLMDLQELLSRMENYRNLKLPRMLTFKFYLPKQATELKDLQCLEDELGPLRHVLDLTQSKSFQLEDAENFISNIRVTVVKLKGSDNTFECQFDDESATVVDFLRRWIAFCQSIISTSPQSGGGGSGGGGGPLGVRGGHHPHGHHPHELCLYDPPEVPNATFKALSYKNGTILNCECKRGFRRLKELVYMRCLGNSWSSNCQCTSNSHDKSRKQVTAQLEHQKEQQTTTDMQKPTQSMHQENLTGHCREPPPWKHEDSKRIYHFVEGQSVHYECIPGYKALQRGPAISICKMKCGKTGWTQPQLTCVDEREHHRFLASEESQGSRNSSPESETSCPITTTDFPQPTETTAMTETFVLTMEYKGCKPCICTVPEVSSVFIFPPKPKDVLTITLTPKVTCVVVDISKDDPEVQFSWFVDDVEVHTAQTQPREEQFNSTFRSVSELPIMHQDWLNGKEFKCRVNSAAFPAPIEKTISKTKGRPKAPQVYTIPPPKEQMAKDKVSLTCMITDFFPEDITVEWQWNGQPAENYKNTQPIMDTDGSYFVYSKLNVQKSNWEAGNTFTCSVLHEGLHNHHTEKSLSHSPGK", "modifications": "Synthetic: Construct NN", "notes": "mIL2-2x(SG4)-MMPcs1-2x(GHHPH)-mIL2Ra(1-215)-muIgG1Fc; pH heparin"}, "B4": {"name": "Construct B: mIL2-2x(SG4)-MMPcs1-2x(G4S)-mIL2Ralpha(1-215)-mIgG1Fc; no TME (protein)", "chain": "B3 chain with H168G, H169G, P170G, H171S, H173G, H174G, P175G, H176S", "modifications": "Synthetic: Construct B polypeptide sequence: m IL2-2x(SG4) MMPcs1 2x (G4S) IL2Ralpha mIgG1 Fc", "notes": "mIL2-2x(SG4)-MMPcs1-2x(G4S)-mIL2Ralpha(1-215)-mIgG1Fc; no TME"}, "B5": {"name": "Construct CC: mIL2-2x(GHHPH)-MMPcs1-2x(G4S)-mIL2Ra(1-215)-muIgG1Fc; pH heparin (protein)", "chain": "APTSSSTSSSTAEAQQQQQQQQQQQQHLEQLLMDLQELLSRMENYRNLKLPRMLTFKFYLPKQATELKDLQCLEDELGPLRHVLDLTQSKSFQLEDAENFISNIRVTVVKLKGSDNTFECQFDDESATVVDFLRRWIAFCQSIISTSPQGHHPHGHHPHGPLGVRGGGGGSGGGGSELCLYDPPEVPNATFKALSYKNGTILNCECKRGFRRLKELVYMRCLGNSWSSNCQCTSNSHDKSRKQVTAQLEHQKEQQTTTDMQKPTQSMHQENLTGHCREPPPWKHEDSKRIYHFVEGQSVHYECIPGYKALQRGPAISICKMKCGKTGWTQPQLTCVDEREHHRFLASEESQGSRNSSPESETSCPITTTDFPQPTETTAMTETFVLTMEYKGCKPCICTVPEVSSVFIFPPKPKDVLTITLTPKVTCVVVDISKDDPEVQFSWFVDDVEVHTAQTQPREEQFNSTFRSVSELPIMHQDWLNGKEFKCRVNSAAFPAPIEKTISKTKGRPKAPQVYTIPPPKEQMAKDKVSLTCMITDFFPEDITVEWQWNGQPAENYKNTQPIMDTDGSYFVYSKLNVQKSNWEAGNTFTCSVLHEGLHNHHTEKSLSHSPGK", "modifications": "Synthetic: Construct CC", "notes": "mIL2-2x(GHHPH)-MMPcs1-2x(G4S)-mIL2Ra(1-215)-muIgG1Fc; pH heparin"}, "B6": {"name": "Construct GG: mIL2-SGG-KLWVLPK-MMPcs1-2x(G4S)-mIL2Ra(1-215)-muIgG1Fc; collagen IV (protein)", "chain": "B5 chain with G150S, H151G, H152G, P153K, H154L, G155W, H156V, H157L, H159K", "modifications": "Synthetic: Construct GG", "notes": "mIL2-SGG-KLWVLPK-MMPcs1-2x(G4S)-mIL2Ra(1-215)-muIgG1Fc; collagen IV"}, "B7": {"name": "Construct II: mIL2-LHERHLNNN-MMPcs1-2x(G4S)-mIL2Ra(1-215)-muIgG1Fc; collagen I (protein)", "chain": "B5 chain with G150S, H151L, P153E, H154R, G155H, H156L, H157N, P158N, H159N", "modifications": "Synthetic: Construct II", "notes": "mIL2-…-MMPcs1-2x(G4S)-mIL2Ra(1-215)-muIgG1Fc; collagen I"}},
  "key": {"[1]": {"molecular_target": "fibronectin (Homo sapiens, UniProt P02751)", "sequence (P02751 32-2477, species assumed)": "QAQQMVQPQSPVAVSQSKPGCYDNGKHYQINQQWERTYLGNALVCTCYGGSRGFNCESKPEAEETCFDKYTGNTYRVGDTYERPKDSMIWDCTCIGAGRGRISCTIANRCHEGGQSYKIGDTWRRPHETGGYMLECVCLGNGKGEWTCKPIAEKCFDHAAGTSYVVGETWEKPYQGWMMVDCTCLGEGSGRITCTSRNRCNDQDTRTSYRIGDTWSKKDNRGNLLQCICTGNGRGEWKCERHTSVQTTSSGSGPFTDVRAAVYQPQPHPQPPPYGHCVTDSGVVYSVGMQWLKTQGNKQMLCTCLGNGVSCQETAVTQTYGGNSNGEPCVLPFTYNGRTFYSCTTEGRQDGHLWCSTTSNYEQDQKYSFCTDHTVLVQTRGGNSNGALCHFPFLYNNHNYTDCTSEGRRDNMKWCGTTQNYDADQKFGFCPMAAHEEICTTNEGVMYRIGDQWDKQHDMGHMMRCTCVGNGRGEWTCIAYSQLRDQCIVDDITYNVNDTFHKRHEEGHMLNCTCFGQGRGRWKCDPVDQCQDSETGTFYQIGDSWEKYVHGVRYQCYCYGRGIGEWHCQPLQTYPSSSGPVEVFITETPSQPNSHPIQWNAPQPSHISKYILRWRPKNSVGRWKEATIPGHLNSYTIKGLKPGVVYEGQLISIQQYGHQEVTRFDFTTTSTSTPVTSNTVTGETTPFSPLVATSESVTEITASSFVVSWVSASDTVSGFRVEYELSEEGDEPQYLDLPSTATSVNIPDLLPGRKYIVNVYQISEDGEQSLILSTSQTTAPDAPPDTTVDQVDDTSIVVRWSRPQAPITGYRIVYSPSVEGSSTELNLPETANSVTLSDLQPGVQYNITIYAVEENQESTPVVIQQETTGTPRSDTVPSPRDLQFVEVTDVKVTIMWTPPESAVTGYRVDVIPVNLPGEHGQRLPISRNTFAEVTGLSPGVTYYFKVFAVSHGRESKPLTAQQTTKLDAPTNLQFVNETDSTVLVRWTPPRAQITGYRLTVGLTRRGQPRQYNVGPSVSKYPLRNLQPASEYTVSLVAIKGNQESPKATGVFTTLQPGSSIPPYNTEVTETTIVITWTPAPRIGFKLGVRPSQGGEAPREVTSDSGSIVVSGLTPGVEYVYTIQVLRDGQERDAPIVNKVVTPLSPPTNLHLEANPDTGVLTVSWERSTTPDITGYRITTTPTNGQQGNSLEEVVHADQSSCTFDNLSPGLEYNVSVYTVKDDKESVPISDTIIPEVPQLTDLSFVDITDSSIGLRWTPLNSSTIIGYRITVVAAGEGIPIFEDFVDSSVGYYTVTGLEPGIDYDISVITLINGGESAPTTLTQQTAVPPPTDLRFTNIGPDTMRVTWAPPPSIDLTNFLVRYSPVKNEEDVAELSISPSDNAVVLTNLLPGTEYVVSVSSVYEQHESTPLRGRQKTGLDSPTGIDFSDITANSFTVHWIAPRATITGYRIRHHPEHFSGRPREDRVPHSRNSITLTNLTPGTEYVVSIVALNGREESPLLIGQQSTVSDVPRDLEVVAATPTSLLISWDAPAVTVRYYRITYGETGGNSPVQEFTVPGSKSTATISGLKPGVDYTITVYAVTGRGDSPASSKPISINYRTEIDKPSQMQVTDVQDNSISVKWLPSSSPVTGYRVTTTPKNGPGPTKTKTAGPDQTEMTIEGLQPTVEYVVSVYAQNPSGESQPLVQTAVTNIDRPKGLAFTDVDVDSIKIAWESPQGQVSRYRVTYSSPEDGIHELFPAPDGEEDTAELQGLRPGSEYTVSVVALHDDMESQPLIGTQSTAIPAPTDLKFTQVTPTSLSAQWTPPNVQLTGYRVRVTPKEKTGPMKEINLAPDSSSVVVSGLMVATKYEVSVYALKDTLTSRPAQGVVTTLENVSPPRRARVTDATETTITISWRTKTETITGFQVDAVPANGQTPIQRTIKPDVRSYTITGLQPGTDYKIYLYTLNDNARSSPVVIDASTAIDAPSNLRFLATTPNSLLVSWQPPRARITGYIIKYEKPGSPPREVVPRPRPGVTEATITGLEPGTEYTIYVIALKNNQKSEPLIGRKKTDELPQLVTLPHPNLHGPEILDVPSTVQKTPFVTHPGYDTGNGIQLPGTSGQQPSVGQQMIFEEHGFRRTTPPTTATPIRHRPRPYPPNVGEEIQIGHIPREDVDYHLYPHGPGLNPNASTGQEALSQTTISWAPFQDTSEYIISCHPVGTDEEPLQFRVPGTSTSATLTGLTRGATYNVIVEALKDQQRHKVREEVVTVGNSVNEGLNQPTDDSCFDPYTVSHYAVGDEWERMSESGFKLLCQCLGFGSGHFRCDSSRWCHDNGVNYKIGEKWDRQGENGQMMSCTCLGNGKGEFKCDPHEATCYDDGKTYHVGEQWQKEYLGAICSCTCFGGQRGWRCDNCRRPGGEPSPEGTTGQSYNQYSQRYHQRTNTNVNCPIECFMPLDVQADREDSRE", "assay": "Fusion protein plate binding assay on fibronectin", "protocol": "A similar plate-based assay was developed to interrogate binding of IL-2 fusion variants to fibronectin. 96-well plates were coated with fibronectin (4-10 μg/mL, Sigma) or control BSA for 18-22 hours at room temperature on shaker (350 rpm). After washing, wells were blocked with 2% milk powder in PBS-0.05% Tween 20 or protein-free blocking buffer (Pierce) for 90 min, then fusion proteins were titrated in blocking buffer-0.1% Tween 20, pH 7.5 and/or pH 6, and added for 1 hour at room temperature with shaking. After washing, an anti-mouse IL-2 biotin-labelled detection antibody (JES6-5H4, ThermoFisher) or anti-human IgG HRP conjugate antibody (SouthernBiotech) was added, and binding was detected using Ultra Streptavidin HRP (ThermoFisher). The plate was developed by adding the chromogenic tetramethylbenzidine substrate (Ultra TMB, ThermoFisher). The reaction was stopped by addition of 0.5 M H2SO4, and the absorbance was read at 450-650 nm."}, "[2]": {"type": "binding", "conditions": "for fusion protein binding to heparin: pH 6", "protocol": "96-well plates were coated with 10 μg/mL of Heparin-BSA conjugate (provided by Dr. Mueller, Boerhinger Ingelheim) or control BSA for 18-22 hours at room temperature on shaker (350 rpm). After washing, wells are blocked with 2% milk powder in PBS-0.05% Tween 20 or PBS-0.05% Tween 20/1% BSA for 90 minutes. The fusion proteins were then titrated in either 2% milk powder in PBS-0.05% Tween 20 or 1% BSA/PBS-0.05% Tween 20, pH 7.5 and/or pH 6, and added for 2 hours at room temperature with shaking. After washing, an anti-mouse IL-2 biotin-labelled detection antibody (JES6-5H4, ThermoFisher), anti-6×-His Tag HRP conjugate antibody (Invitrogen, 1 mg/mL, cat #MA1-21315-HRP), or anti-human IgG HRP conjugate antibody (SouthernBiotech) was added, and binding was detected using Ultra Streptavidin HRP (ThermoFisher). The plate was developed by adding the chromogenic tetramethylbenzidine substrate (Ultra TMB, ThermoFisher). The reaction was stopped by addition of 0.5 M H2SO4, and the absorbance was read at 450-650 nm. […] Moreover, when the same pH-dependent heparin binding motif was inserted into different locations of IL-2 fusion proteins, all resulting proteins bound heparin at pH 6 with similar high affinities (FIGS. 4F and 4G). Likewise, similar binding affinities were observed when another heparin targeting sequence was engineered into different sites of IL-2 fusion proteins (FIGS. 4H-4I). […] The heparin binding activity is recovered when a heparin binding motif is engineered into the linker polypeptide-IL-15 fusion protein (Construct WWW). Finally, linker polypeptide-IL-2 fusion proteins engineered with a heparin binding site show about 30-fold enhanced binding to heparin in vitro compared to constructs lacking a heparin binding site (Construct EEE and Construct NNNN vs. Construct AAA and Construct NNN, respectively) as shown in FIG. 4M."}, "[3]": {"test_system": "collagen", "assay": "Collagen-agarose pulldown assay with IL-2 immunoblot", "type": "binding", "conditions": "for binding to collagen-agarose beads (pulldown): 18-22 hours at 4° C.", "protocol": "To test binding to collagen, a pulldown assay using agarose cross-linked to collagen (Sigma) was performed. IL-2 fusion proteins were incubated with collagen-agarose or control agarose beads for 18-22 hours at 4° C. with gentle rotation in 1% BSA/PBS-0.05% Tween 20. After washing, proteins bound to the beads were eluted by resuspending beads in SDS sample buffer (Life Technologies). Bound proteins were then separated by SDS-PAGE on 4-12% BisTris gradient gel, followed by immunoblotting with goat anti-mouse IL-2 polyclonal antibody (AF-402-NA; R&D systems). Donkey anti-goat HRP-conjugated antibody was used for detection (Jackson Immuno Research, West Grove, PA), and the blot was developed using the SuperSignal West Femto Maximum sensitivity detection reagent (ThermoFisher) following the manufacturer's recommendations."}},
  "note": "Numbering of substitutions follows the chain as printed. Names may count otherwise.",
  "data": [
    {"molecule": "B1", "values": [
      {"measurement": "fusion protein binding to fibronectin", "setting": "[1]; acidic pH (pH 6)", "value": "dose-dependent binding"},
      {"measurement": "fusion protein binding to fibronectin", "setting": "[1]; pH 7.5 (neutral)", "value": "no binding"}
    ]},
    {"molecule": "B2", "values": [
      {"measurement": "fusion protein binding to heparin", "setting": "[2]", "value": "bound heparin in a dose-dependent manner and with higher affinity than Construct B"}
    ]},
    {"molecule": "B3", "values": [
      {"measurement": "fusion protein binding to heparin", "setting": "[2]", "value": "mimicked the Construct CC binding profile"}
    ]},
    {"molecule": "B4", "values": [
      {"measurement": "heparin binding EC50 value, fold higher than Construct CC", "setting": "[2]", "value": "greater than 100 fold"},
      {"measurement": "fusion protein binding to heparin", "setting": "[2]", "value": "much weaker"},
      {"measurement": "fusion protein binding to fibronectin", "setting": "[1]; acidic pH (pH 6)", "value": "No significant binding"},
      {"measurement": "fusion protein binding to fibronectin", "setting": "[1]; pH 7.5 (neutral)", "value": "No significant binding"}
    ]},
    {"molecule": "B5", "values": [
      {"measurement": "EC50", "setting": "[2]; acidic pH, read-out: heparin binding EC50", "value": "~10", "unit": "nM"},
      {"measurement": "fusion protein binding to heparin", "setting": "[2]", "value": "bound heparin in a dose-dependent manner and with higher affinity than Construct B"},
      {"measurement": "pH preference of heparin binding", "setting": "[2]; pH 6 vs pH 7.5", "value": "preferentially bound heparin at acidic pH"}
    ]},
    {"molecule": "B6", "values": [
      {"measurement": "binding to collagen-agarose beads (pulldown)", "setting": "[3]", "value": "specifically bound"},
      {"measurement": "fraction bound, fold higher than the fraction of bound Construct B", "setting": "[3]; blot quantitation", "value": 2.5, "unit": "fold"}
    ]},
    {"molecule": "B7", "values": [
      {"measurement": "binding to collagen-agarose beads (pulldown)", "setting": "[3]", "value": "specifically bound"}
    ]}
  ]
}
